Measured values published in patent publication US20070238677A1 (LOCOMOGENE, published 2007).

Biological target: FLAG-Synoviolin (UniProt Q86TM6 1-617, limits assumed)
Assay: cell-based or functional assay

Chain of FLAG-Synoviolin (Q86TM6 whole entry): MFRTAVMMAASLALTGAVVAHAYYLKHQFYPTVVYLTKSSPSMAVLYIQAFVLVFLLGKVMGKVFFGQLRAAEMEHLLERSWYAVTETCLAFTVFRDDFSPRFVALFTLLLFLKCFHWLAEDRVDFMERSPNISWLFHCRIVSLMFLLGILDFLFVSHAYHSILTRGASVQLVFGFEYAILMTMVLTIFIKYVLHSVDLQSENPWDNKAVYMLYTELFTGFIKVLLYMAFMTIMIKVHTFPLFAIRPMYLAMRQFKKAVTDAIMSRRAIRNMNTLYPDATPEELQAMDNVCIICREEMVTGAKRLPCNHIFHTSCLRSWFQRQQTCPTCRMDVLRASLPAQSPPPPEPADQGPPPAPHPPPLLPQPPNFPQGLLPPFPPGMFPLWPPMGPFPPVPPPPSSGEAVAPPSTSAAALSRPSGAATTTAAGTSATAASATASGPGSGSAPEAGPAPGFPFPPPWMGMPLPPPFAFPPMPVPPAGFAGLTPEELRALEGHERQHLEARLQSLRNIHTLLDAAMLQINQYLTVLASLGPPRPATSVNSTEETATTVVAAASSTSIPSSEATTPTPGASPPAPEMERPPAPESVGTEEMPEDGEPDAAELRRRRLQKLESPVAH

half-life of SEL1L/hsHRD3 (cycloheximide chase, Western blotting), in the absence of Synoviolin: 1.8 h
half-life of SEL1L/hsHRD3 (cycloheximide chase, Western blotting), with FLAG-Synoviolin co-expressed: 4.3 h
B1: SP-HA-hsHRD3B (SEL1L/hsHRD3 with an HA-tag inserted immediately after the signal peptide) (other, not shown: small tags and cut ends)
chain: GSQDESLDSKTTLTSDESVKDHTTAGRVVAGQIFLDSEESELESSIQEEEDSLKSQEGESVTEDISFLESPNPENKDYEEPKKVRKPALTAIEGTAHGEPCHFPFLFLDKEYDECTSDGREDGRLWCATTYDYKADEKWGFCETEEEAAKRRQMQEAEMMYQTGMKILNGSNKKSQKREAYRYLQKAASMNHTKALERVSYALLFGDYLPQNIQAAREMFEKLTEEGSPKGQTALGFLYASGLGVNSSQAKALVYYTFGALGGNLIAHMVLGYRYWAGIGVLQSCESALTHYRLVANHVASDISLTGGSVVQRIRLPDEVENPGMNSGMLEEDLIQYYQFLAEKGDVQAQVGLGQLHLHGGRGVEQNHQRAFDYFNLAANAGNSHAMAFLGKMYSEGSDIVPQSNETALHYFKKAADMGNPVGQSGLGMAYLYGRGVQVNYDLALKYFQKAAEQGWVDGQLQLGSMYYNGIGVKRDYKQALKYFNLASQGGHILAFYNLAQMHASGTGVMRSCHTAVELFKNVCERGRWSERLMTAYNSYKDGDYNAAVIQYLLLAEQGYEVAQSNAAFILDQREASIVGENETYPRALLHWNRAASQGYTVARIKLGDYHFYGFGTDVDYETAFIHYRLASEQQHSAQAMFNLGYMHEKGLGIKQDIHLAKRFYDMAAEASPDAQVPVFLALCKLGVVYFLQYIRETNIRDMFTQLDMDQLLGPEWDLYLMTIIALLLGTVIAYRQRQHQDMPAPRPPGPRPAPPQQEGPPEQQPPQ
